The results in this text go back to PMC3701909, “Direct single molecule measurement of TCR triggering by agonist pMHC in living primary T cells” (eLife, 2013).

One may read the stoichiometry N as a count of units in the complex or per binding partner.

One test concerns AND TCR. The experiment in a line: single molecule tracking of agonist pMHC:TCR dwell times in hybrid live T cell-supported membrane junctions. Format: binding, mouse. The settings on record: AND T cells, 37 °C, compared with same-day control. The text has this: (§1) We probe agonist pMHC:TCR complex dynamics in hybrid live cell—supported membrane junctions([Grakoui et al., 1999]) (Figure 1A). The supported membrane is functionalized with MHC (IE^k) and intercellular adhesion molecule-1 fusion with a blue fluorescent protein (ICAM1-TagBFP), both linked to the membrane via C-terminal poly-His tag binding to Ni-chelating lipids ([Nye and Groves, 2008]). The MHC is loaded with peptide (moth cytochrome c [MCC] agonist or null), which is covalently coupled in a 1:1 stoichiometry (verified by HPLC) to the photostable fluorophores Atto647N or Atto488 using maleimide-thiol chemistry. […]
(§2) Since the slow-moving pMHC can be clearly resolved from the fast moving component, the lifetime of molecules in this bound state is directly observable. […] Unbinding and photobleaching are indistinguishable in fluorescence methods such as this. […]
(§3) TIRF experiments were performed on an inverted microscope (Nikon Eclipse Ti; Technical Instruments, Burlingame, CA) using a custom-built laser launch with 488 nm (Sapphire HP; Coherent Inc., Santa Clara, CA) and 640 nm (Cube; Coherent Inc.) diode lasers, as described previously ([Smith et al., 2011]). Laser powers measured at the sample were 0.8 mW (640 nm) and 0.5 mW (488 nm) for 500 ms exposures and 4.4 mW (640 nm) for 17.5 ms exposures. […]

The subject of the next test is 5c.c7 TCR. The description is as above. In kind it is binding, mouse. The following applies: 5c.c7 T cells, 37 °C, compared with same-day control.
From the text: as §1, §2, §3

Test [1] concerns the target MCC agonist pMHC: MHC class II I-E^k loaded with MCC(C) peptide labelled with Atto488 (not stated | moth) (UniProt P04230). The experiment in a line: single molecule fluorescence tracking (TIRF); pMHC (Atto488 on the peptide) tethered by His tags to a Ni-NTA supported lipid bilayer with ICAM1-TagBFP; live primary T cell blasts added; 500 ms exposure, 1-10 s time lapse; dwell time of the slow-moving pMHC corrected for photobleaching; 37°C, imaging buffer; also at 100 molecules/µm^2 and with Latrunculin A.

Test [2] concerns the target MCC agonist pMHC: MHC class II I-E^k loaded with MCC(C) peptide labelled with Atto647N (not stated | moth) (UniProt P04230). Put plainly: two-color single molecule fluorescence tracking (TIRF); agonist pMHC (MCC-Atto647N) on a supported lipid bilayer; live T cells expressing ZAP70-EGFP; 1 frame/s, 500 ms integration; pair pMHC and TCR.
Test [3] addresses phosphorylated ITAM domains on the cytoplasmic side of TCR engaged with pMHC (TCR complex, 10 ITAM domains) (mouse (endogenous in primary T cells)). Put plainly: two-color single molecule fluorescence tracking (TIRF); ZAP70-EGFP intensity integrated over a 315 nm square centred on each pMHC:TCR complex in live T cells; change-point analysis; intensity calibrated with single ZAP70-EGFP molecules of the same cell; dwell times not corrected for photobleaching.

As to `C/C1=C/C(=O)O[C@@H]2C[C@@H](CC[C@H](C)/C=C\C=C\CC1)O[C@@](O)([C@@H]1CSC(=O)N1)C2` [Latrunculin A], the “effect of cytoskeleton disruption on ⟨τoff⟩ of agonist pMHC” value with AND TCR is “moderately increases”. Besides, the “effect of cytoskeleton disruption on agonist pMHC binding kinetics” value in the test on 5c.c7 TCR is “no significant effect”.
The compound AND TCR had a mean dwell time 〈τoff〉 in test [1] of 53.8 s. This compound returned a stoichiometry N in test [2] of 1.
In test [3], “enhanced green fluorescent protein fused to CD3 zeta-chain-associated protein of 70 kDa (Zap70-EGFP) (from UniProt P43404 1-618) (enzyme)” had a ZAP70 molecules (EGFP-tagged and endogenous) per feature (ZAP70 molecules per feature) of 6; a molecular binding dwell time of 12 to 107 s; a stoichiometry N (ZAP70-EGFP per feature) of 2.9.
